Measured values: patent US20150197561A1 (ONCOMED PHARMACEUTICALS, published 2015)
Changes are numbered by the printed parent chain. Read-outs that look alike come from different tables or passages of the source.

B1: Fab 64R7 (Fab, V domains shown)
VH: QVQLVESGGGVVQPGRSLRLSCAASGFTFSSYAMHWVRQAPGKGLEWVAVISYDGSNKYYADSVKGRFTISRDNSKNTLYLQMNSLRAEDTAVYYCARDKYDIPDAFDIWGQGTLVTVSS
VL: DIRMTQSPSSLSASVGDRVTITCRASQGISNDLAWYQQKPGKVPRLLIYATSTLQSGVPSRFSGSGSATDFTLTISSLQPEDVATYYCQQSYNAPITFGQGTRLEIK
notes: Fab from a human Fab phage library; also called 64R7 Fab
B2: antibody 133R0201 (antibody, V domains shown)
VH: QVQLVESGGGVVQPGRSLRLSCAASGFTFSSYAMHWVRQAPGKGLEWVAAIYPDSSNKYYADSVKGRFTISRDNSKNTLYLQMNSLRAEDTAVYYCARDKYDIPDAFDIWGQGTLVTVS
VL: B1 VL
B3: 64R7 IgG2 antibody (antibody, V domains shown)
VH: B1 VH
VL: DIRMTQSPSSLSASVGDRVTITCRASQGISNDLAWYQQKPGKVPRLLIYATSTLQSGVPSRFSGSGSATDFTLTISSLQPEDVATYYCQQSYNAPITFGQGTRLEIKR
notes: Human IgG2 / kappa, expressed in CHO cells; also called antibody 64R7; ATCC PTA-10470
B4: antibody 133R0205 (antibody, V domains shown)
VH: B2 VH with D54A
VL: B1 VL
B5: antibody 133R0203 (antibody, V domains shown)
VH: B2 VH with Y52S, D54E, S55A
VL: B1 VL
B6: antibody 64M51 (antibody, mouse IgG1, kappa, V domains shown)
VH: QVQLKQSGAELVRPGTSVKLSCKTSGYIFTSYWIHWVKQRSGQGLEWIARIYPGIGSTYYNEKFKDKATLTADKSSSTAYMQLSSLKSEDSAVYFCAKNGGFFDYWGQGTTLTVSS
VL: DIVLTQSPASLAVSLGQRATISCRASESVDSYGNSFMHWYQQKPGQPPKLLIYRASNLESGIPARFSGSGSRTDFTLTINPVEADDVATYYCQQSNEDPWTFGGGTKLEIKR
notes: Mouse hybridoma monoclonal raised against mouse Jagged1 ECD-His; also called anti-Jagged 64M51; ATCC PTA-10468
B7: 64R1B IgG2 antibody (antibody, V domains shown)
VH: QVQLQESGPGLVKPSGTLSLTCTVSGDSISSSNWWSWVRQPPGQGLEWIGEIFHGENTNYNPSLKSRVTISVDKSKNQISLNLTSATAADTAVYYCARNPGIGAAKFDSWGQGTLVTVSS
VL: DIVMTQTPLSLSVTPGQPASISCKSSQSLLHSDGKTYLYWYLQKPGQPPQLLIYEVSNRFSGVPDRFSGSGSGTDFTLKISRVEAEDVGVYYCMQHIDFPFTFGQGTKLEIKR
notes: Human IgG2 / kappa, expressed in CHO cells; also called antibody 64R1B; ATCC PTA-10469

What was measured:
[1] = biological target: T1, human Jagged1-Fc (extracellular domain of human Jagged1 fused to human Fc) (human, UniProt P78504 34-1067); assay: phage display output screened by ELISA on recombinant human Jagged1 ECD-Fc; 64R7 named as one of the Fabs in paragraph 226
T1 construct: also called hJag1; human Jagged1 ECD-Fc; not shown: human Fc
Protocol: Phage display was used to identify specific Fabs that bind to the extracellular domain of human Jagged1. 2×10¹³ Fab displaying phage particles from a human Fab phage library were incubated with passively immobilized recombinant human Jagged1 ECD protein fused with a human Fc domain. The non-binding phage were washed off, phage bound to the Jagged1 protein were eluted with 100 mM glycine, […] pH2.2 and the elutant was neutralized with 1/10 volume of 2M Tris base. The eluted output phage were used to infect TG1 F+ bacteria and rescued with helper phage. The output of rescued round one served as the starting point for further selection rounds. The selections were continued to round 3, and then the output was screened in ELISA for Fabs specifically binding to recombinant human Jagged1 ECD-Fc protein. Several Fabs that specifically bound to human Jagged1 were identified.

[2] = biological target: T2, mouse Jagged1-His (extracellular domain of mouse Jagged1, aa 1-1060, with histidine tag) (mouse, UniProt Q9QXX0 34-1060); assay: SPR, Biacore 2000; Jagged protein amine-coupled to CM5 chip, antibody injected 100-1.0 nM, global fit
T2 construct: made in insect cells; also called mJag1; Mouse Jagged 1 ECD His-tagged
Protocol: (§1) The KDs of antibodies 133R0201, 133R0203 and 133R0205 were determined using a Biacore 2000 system from Biacore Lifescience (GE Healthcare) and compared to K, of antibody 64R7. As described above in Example 4, recombinant Jagged proteins human Jagged1-Fc (hJag1), mouse Jagged1-His (mJag1), human Jagged2-Fc (hJag2) and mouse Jagged2-Fc (mJag2) were immobilized on a CM5 chip using standard amine-based chemistry (NHS/EDC). Antibodies were serially diluted in 2-fold increments from 100 to 1.0 nM in HBS-P (0.01M HEPES pH7.4, 0.15M NaCl, 0.005% v/v Surfactant P20) and were injected over the chip surface. Kinetic data were collected over time and were fit using the simultaneous global fit equation to yield affinity constants (K, values) for each antibody (Table 5).

[3] = biological target: T3, human Jagged2-Fc (extracellular domain of human Jagged2 fused to human Fc) (human, UniProt Q9Y219 27-1080); assay: as above
T3 construct: also called hJag2; not shown: human Fc
T3 sequence (Q9Y219 27-1080 E501K): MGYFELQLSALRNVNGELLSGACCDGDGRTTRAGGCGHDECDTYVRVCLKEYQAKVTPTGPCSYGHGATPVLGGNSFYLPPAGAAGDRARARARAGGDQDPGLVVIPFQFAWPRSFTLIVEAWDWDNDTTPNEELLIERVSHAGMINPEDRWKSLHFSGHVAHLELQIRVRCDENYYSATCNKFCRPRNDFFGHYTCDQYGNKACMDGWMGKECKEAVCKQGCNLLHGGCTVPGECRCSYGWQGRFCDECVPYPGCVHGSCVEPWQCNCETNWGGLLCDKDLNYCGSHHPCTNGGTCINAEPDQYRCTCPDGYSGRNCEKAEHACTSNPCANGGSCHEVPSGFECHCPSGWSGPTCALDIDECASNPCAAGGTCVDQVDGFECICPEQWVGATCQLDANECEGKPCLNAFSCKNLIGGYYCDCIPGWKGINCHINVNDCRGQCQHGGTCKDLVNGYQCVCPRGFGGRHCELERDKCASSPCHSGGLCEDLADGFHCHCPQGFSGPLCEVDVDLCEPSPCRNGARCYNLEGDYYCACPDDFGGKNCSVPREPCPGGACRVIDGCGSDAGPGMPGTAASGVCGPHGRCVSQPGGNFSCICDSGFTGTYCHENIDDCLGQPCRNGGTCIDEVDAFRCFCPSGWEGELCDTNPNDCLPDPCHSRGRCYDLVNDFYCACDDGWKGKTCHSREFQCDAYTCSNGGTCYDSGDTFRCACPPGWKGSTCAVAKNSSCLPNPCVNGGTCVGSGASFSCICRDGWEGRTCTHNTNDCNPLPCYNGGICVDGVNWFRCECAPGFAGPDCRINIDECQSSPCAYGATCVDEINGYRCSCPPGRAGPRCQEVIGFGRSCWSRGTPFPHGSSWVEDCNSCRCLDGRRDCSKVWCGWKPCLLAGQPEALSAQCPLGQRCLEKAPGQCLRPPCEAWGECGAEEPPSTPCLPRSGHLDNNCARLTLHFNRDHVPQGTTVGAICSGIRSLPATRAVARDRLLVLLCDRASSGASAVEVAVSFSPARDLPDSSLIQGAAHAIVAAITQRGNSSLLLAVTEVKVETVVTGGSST
Protocol: as §1

[4] = biological target: T4, mouse Jagged2-Fc (extracellular domain of mouse Jagged2 fused to human Fc) (mouse, UniProt Q9QYE5 24-1082); assay: as above
T4 construct: extracellular domain; also called mJag2; not shown: human Fc
T4 sequence (Q9QYE5 24-1082): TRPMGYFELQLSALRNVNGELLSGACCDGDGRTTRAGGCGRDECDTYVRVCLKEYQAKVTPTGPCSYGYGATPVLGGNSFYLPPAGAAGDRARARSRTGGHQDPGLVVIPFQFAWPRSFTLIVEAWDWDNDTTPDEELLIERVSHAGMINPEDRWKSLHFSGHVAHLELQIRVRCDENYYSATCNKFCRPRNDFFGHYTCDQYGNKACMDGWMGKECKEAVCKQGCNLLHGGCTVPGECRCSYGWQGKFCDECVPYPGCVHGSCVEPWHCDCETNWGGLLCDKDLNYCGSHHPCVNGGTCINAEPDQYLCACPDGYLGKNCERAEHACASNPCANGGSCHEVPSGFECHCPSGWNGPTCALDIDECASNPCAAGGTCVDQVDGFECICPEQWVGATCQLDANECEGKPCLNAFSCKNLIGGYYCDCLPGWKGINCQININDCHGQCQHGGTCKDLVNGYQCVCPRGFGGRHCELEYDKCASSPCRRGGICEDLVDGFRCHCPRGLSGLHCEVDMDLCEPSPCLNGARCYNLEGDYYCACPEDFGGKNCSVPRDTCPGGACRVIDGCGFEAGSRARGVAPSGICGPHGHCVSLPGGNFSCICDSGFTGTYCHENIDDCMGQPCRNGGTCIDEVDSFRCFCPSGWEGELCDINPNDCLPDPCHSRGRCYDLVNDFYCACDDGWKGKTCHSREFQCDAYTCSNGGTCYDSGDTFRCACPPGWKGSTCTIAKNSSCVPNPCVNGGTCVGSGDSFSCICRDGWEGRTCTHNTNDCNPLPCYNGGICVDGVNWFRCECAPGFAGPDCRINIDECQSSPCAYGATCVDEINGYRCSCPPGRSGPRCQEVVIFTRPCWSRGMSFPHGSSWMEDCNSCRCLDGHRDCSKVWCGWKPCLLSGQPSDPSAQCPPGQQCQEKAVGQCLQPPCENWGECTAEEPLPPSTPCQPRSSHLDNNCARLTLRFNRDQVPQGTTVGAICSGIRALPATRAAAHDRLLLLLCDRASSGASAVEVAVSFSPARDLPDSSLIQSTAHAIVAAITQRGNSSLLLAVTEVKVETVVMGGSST
Protocol: as §1

[5] = biological target: T1, human Jagged1-Fc (extracellular domain …); assay: as above
Protocol: as §1

[6] = biological target: T2, mouse Jagged1-His (extracellular domain …); assay: as above; remark: listed apart in the source
Protocol: as §1, with “of 64M51, 64R7 and 64R1B” for “of”, “antibodies” for “antibodies 133R0201, 133R0203 and 133R0205”, “Healthcare). Recombinant” for “Healthcare) and compared to K, of antibody 64R7. As described above in Example 4, recombinant”, “(KD” for “(K,”, “3).” for “5).”

[7] = biological target: T3, human Jagged2-Fc (extracellular domain …); assay: as above; remark: listed apart in the source
Protocol: as §1, with “of 64M51, 64R7 and 64R1B” for “of”, “antibodies” for “antibodies 133R0201, 133R0203 and 133R0205”, “Healthcare). Recombinant” for “Healthcare) and compared to K, of antibody 64R7. As described above in Example 4, recombinant”, “(KD” for “(K,”, “3).” for “5).”

[8] = biological target: T4, mouse Jagged2-Fc (extracellular domain …); assay: as above; remark: listed apart in the source
Protocol: as §1, with “of 64M51, 64R7 and 64R1B” for “of”, “antibodies” for “antibodies 133R0201, 133R0203 and 133R0205”, “Healthcare). Recombinant” for “Healthcare) and compared to K, of antibody 64R7. As described above in Example 4, recombinant”, “(KD” for “(K,”, “3).” for “5).”

[9] = biological target: T1, human Jagged1-Fc (extracellular domain …); assay: as above; remark: listed apart in the source
Protocol: as §1, with “of 64M51, 64R7 and 64R1B” for “of”, “antibodies” for “antibodies 133R0201, 133R0203 and 133R0205”, “Healthcare). Recombinant” for “Healthcare) and compared to K, of antibody 64R7. As described above in Example 4, recombinant”, “(KD” for “(K,”, “3).” for “5).”

[10] = biological target: T1, human Jagged1-Fc (extracellular domain …); assay: SPR, Biacore 2000; Jagged protein amine-coupled to CM5 chip, antibody injected 100-1.0 nM, global fit; Example 13 run (Table 5), compared with 133R0201, 133R0203, 133R0205; separate experiment from Table 3
Protocol: as §1

[11] = biological target: T5, human Jagged2, full-length, expressed on transfected cells (human, UniProt Q9Y219 24-1238); assay: flow cytometry on transfected HEK293 cells
T5 construct: Full-length cDNA transfected into HEK293 cells (FACS) or PC3 cells (two cell population reporter assay); also called hJagged2; hJag2
T5 sequence (Q9Y219 24-1238 E501K limits assumed): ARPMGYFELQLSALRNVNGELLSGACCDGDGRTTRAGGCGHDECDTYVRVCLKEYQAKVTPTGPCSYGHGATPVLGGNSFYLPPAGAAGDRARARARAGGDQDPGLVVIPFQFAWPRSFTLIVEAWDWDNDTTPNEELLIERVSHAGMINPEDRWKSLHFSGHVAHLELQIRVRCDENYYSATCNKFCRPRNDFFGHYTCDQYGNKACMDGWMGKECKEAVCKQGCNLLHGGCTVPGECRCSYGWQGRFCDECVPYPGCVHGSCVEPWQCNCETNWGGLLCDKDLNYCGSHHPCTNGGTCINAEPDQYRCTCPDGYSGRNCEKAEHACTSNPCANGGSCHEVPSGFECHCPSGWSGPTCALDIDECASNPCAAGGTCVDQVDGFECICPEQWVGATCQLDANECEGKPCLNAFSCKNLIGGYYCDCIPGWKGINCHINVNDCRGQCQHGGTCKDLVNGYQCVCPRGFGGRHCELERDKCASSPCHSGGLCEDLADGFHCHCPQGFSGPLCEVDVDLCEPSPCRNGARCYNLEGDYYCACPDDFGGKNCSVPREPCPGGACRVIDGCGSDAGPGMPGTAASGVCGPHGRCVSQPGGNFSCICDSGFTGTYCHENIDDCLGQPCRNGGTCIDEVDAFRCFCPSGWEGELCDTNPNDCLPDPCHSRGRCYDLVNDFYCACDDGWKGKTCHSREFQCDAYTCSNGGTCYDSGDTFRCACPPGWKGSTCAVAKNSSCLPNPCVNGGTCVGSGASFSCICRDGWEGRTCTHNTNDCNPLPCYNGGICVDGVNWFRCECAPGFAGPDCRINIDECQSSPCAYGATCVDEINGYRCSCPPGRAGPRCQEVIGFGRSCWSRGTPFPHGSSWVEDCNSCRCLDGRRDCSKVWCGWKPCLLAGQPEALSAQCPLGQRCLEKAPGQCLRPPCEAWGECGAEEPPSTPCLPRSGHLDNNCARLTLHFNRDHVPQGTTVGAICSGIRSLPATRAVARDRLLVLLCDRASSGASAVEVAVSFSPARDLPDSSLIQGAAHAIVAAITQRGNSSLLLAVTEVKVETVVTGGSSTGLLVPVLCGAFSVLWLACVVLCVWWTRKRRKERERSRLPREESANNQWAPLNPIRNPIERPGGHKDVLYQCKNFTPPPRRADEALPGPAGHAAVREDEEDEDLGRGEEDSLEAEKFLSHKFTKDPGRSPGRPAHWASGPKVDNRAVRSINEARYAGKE

[12] = biological target: T6, mouse Jagged2 expressed on HEK293 cells (mouse, UniProt Q9QYE5 24-1247); assay: flow cytometry on transfected HEK293 cells
T6 construct: whole, on cells
T6 sequence (Q9QYE5 24-1247): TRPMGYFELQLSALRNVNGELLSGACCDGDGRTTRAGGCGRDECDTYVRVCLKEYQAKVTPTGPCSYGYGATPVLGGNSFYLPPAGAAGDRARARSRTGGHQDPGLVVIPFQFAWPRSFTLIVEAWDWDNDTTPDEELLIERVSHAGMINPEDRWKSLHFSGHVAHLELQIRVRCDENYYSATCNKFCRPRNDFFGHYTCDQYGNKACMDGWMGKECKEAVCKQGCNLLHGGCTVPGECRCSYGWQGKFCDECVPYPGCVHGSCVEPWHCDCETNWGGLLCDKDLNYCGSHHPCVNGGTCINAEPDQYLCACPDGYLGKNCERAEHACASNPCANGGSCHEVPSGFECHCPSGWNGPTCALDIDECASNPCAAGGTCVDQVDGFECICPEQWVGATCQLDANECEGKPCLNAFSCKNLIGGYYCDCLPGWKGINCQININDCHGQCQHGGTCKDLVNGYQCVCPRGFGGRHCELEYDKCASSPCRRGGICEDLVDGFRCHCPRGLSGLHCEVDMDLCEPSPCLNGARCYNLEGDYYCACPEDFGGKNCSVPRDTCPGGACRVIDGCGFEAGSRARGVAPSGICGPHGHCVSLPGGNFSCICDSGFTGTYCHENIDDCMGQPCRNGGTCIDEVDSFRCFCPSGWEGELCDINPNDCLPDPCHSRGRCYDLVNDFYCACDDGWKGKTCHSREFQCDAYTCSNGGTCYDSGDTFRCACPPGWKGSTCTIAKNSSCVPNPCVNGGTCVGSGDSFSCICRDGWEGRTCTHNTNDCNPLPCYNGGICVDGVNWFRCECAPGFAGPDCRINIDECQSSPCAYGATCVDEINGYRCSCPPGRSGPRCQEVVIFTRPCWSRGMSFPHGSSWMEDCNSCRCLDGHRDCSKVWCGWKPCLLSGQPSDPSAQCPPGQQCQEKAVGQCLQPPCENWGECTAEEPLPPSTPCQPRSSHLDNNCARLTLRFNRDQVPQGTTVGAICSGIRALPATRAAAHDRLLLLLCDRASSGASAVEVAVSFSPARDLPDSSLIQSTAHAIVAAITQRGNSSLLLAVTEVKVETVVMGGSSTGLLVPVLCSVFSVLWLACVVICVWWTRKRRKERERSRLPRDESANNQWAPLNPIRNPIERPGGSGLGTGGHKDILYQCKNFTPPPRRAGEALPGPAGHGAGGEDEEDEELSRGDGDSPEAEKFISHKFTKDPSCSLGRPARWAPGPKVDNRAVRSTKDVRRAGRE

[13] = biological target: T3, human Jagged2-Fc (extracellular domain …); assay: SPR, Biacore 2000; Jagged protein on CM5 chip, antibody injected
Protocol: as §1, with “of 64M51, 64R7 and 64R1B” for “of”, “antibodies” for “antibodies 133R0201, 133R0203 and 133R0205”, “Healthcare). Recombinant” for “Healthcare) and compared to K, of antibody 64R7. As described above in Example 4, recombinant”, “(KD” for “(K,”, “3).” for “5).”

[14] = biological target: T4, mouse Jagged2-Fc (extracellular domain …); assay: as above
Protocol: as §1, with “of 64M51, 64R7 and 64R1B” for “of”, “antibodies” for “antibodies 133R0201, 133R0203 and 133R0205”, “Healthcare). Recombinant” for “Healthcare) and compared to K, of antibody 64R7. As described above in Example 4, recombinant”, “(KD” for “(K,”, “3).” for “5).”

Binder	Kd [2]	Kd [3]	Kd [4]	Kd [5]	Kd [6]	Kd [9]	other results
B1	–	–	–	–	–	–	binding result [1]: binds
B2	0.8 nM	2.9 nM	3.2 nM	0.76 nM	–	–	–
B3	4.8 nM	10 nM	9.6 nM	–	10.5 nM	5.9 nM	Kd [7]: 8.3 nM; Kd [8]: 20.6 nM; Kd [10]: 1.7 nM
B4	1.5 nM	5.8 nM	4.8 nM	1.2 nM	–	–	–
B5	1.6 nM	3.7 nM	3.8 nM	1.4 nM	–	–	–
B6	–	–	–	–	33 nM	30 nM	Kd [7]: 6.2 nM; Kd [8]: 7.9 nM
B7	–	–	–	–	0.82 nM	0.61 nM	binding result [11]: no binding (tested: 10 µg/ml); binding result [12]: no binding (tested: 10 µg/ml); binding result [13]: no binding (tested: No binding detected at 100 nM); binding result [14]: no binding (tested: No binding detected at 100 nM)
